From patent US20230348603A1 (VERSEAU THERAPEUTICS, published 2023)

B1: 15A06 mouse/human chimeric IgG4 (S228P) kappa (antibody, V domains shown)
VH: QVQMKQSGPSLVRPSQTLSLTCSVTGDSITSGYWNWIRKFPGDKFEYLGYISYSGFTYYNPSLKSRVSITRDTSKNQYYLQLHSVTTEDTATYYCASSKYGSSLGFPYWGQGTLVTVSA
VL: DVVMTQTPLSLPVSLGDQASISCRSSQSLVHSNGNTYLHWYLQKPGQSPKLLIYKVSNRFSGVPDRFSGSGSGTDFTLKISRVEAEDLGVYFCSQSTHVPFTFGSGTKLEIKR
B2: 13H11 mouse/human chimeric IgG4 (S228P) kappa (antibody, V domains shown)
VH: QIQLVQSGPELKKPGETVKISCKASGYTFENFGMNWVKQAPGKGLKWMGWINTYTGEATYADDFKGRFAFSLETSASTAYLQINNLKNEDTATYFCARDGGFRHFDVWGAGTTVTVSS
VL: ETTVTQSPASLSVATGEKVTIRCITSTDIDDDMNWYQQKPGEPPKLLISEGNTLRPGVPSRFSSSGYGTDFVFTIENMLSEDVADYYCLQSDNLPLTFGAGTKLELKR
B3: 14C05 mouse/human chimeric IgG4 (S228P) kappa (antibody, V domains shown)
VH: EVMLVESGPELKKPGETVKISCKASGYTFTNYGMNWVKQAPGKGLKWMGSINTYTGEATYADDFKGRFAFSLETSANTAYLQIDNLKNEDTATYFCARGDYYGRGTWFAYWGQGTLVTVSA
VL: ETTVTQSHKFMSTSVGDRVSITCKASQDVSTAVAWYQQKPGQSPKLLIYSASYRYPGVPDRFTGSGSGTDFTFTISSVQAEDLAVYYCQQDYSSPWTFGGGTKLEIKR

Key:
Human VSIG4-L-Fc [1] = biological target: T1, Human VSIG4-L-Fc (human); test: BLI binning on hVSIG4-L-Fc, competitor 15A06 first;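 also: normalized to binding of second antibody without first competitor antibody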
T1 construct: also called hVSIG4-L-Fc; hVSIG4-L

Human VSIG4-L-Fc [2] = biological target: T1, Human VSIG4-L-Fc; test: BLI binning on hVSIG4-L-Fc, competitor 15C04 first;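 also: normalized to binding of second antibody without first competitor antibody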
Human VSIG4-L-Fc [3] = biological target: T1, Human VSIG4-L-Fc; test: BLI binning on hVSIG4-L-Fc, competitor 15C03 first;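 also: normalized to binding of second antibody without first competitor antibody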
Human VSIG4-L-Fc [4] = biological target: T1, Human VSIG4-L-Fc; test: BLI binning on hVSIG4-L-Fc, competitor 12A08 first;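 also: normalized to binding of second antibody without first competitor antibody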
Human VSIG4-L-Fc [5] = biological target: T1, Human VSIG4-L-Fc; test: BLI binning on hVSIG4-L-Fc, competitor 16E10 first;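 also: normalized to binding of second antibody without first competitor antibody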
[6] = biological target: T2, Human VSIG4-L-CHO (human VSIG4 long isoform on CHO-K1 cells) (human, UniProt Q9Y279 20-399); test: flow cytometry, CHO-K1 cells expressing hVSIG4-L
T2 construct: also called hVSIG4-L (flow cytometry)
T2 sequence: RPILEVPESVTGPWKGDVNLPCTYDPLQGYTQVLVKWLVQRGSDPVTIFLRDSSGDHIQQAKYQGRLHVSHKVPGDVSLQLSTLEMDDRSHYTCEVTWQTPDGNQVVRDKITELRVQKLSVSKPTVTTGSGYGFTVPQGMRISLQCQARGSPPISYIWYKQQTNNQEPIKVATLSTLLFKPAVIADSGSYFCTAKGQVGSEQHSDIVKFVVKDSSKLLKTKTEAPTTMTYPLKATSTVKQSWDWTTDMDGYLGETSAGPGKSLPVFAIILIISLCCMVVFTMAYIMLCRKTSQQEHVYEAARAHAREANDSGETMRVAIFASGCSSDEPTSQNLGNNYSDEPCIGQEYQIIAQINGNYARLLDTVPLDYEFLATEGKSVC

Human VSIG4-L-His [7] = biological target: T3, Human VSIG4-L-His (human, UniProt Q9Y279 20-283); test: SPR (FJB)
T3 construct: long isoform ECD with His tag; also called hVSIG4-L
T3 sequence: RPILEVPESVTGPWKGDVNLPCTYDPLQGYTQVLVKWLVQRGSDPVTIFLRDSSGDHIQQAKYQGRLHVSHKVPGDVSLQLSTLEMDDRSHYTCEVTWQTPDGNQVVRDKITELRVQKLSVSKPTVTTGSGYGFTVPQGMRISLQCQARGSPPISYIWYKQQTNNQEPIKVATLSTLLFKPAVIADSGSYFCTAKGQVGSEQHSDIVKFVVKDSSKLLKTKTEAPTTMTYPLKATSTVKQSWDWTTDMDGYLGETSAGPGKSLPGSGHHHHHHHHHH

[8] = biological target: T4, Cynomolgus Monkey VSIG4-L-His (cynomolgus monkey); test: SPR (FJB)
T4 construct: ECD with His tag; also called cyVSIG4-L; cyno VSIG4-L-His
T4 chain: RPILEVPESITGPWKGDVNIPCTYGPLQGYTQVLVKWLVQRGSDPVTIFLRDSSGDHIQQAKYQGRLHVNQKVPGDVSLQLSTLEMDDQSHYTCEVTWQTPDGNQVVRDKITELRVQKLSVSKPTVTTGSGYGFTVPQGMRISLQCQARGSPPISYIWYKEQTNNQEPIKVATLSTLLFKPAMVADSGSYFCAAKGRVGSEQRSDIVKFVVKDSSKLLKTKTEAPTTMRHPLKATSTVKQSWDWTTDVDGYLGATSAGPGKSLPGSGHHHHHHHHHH

[9] = biological target: T2, Human VSIG4-L-CHO (human VSIG4 long …); test: flow cytometry (FJB), 200 nM mAb, huVSIG4-L CHO-K1 cells
[10] = biological target: T4, Cynomolgus Monkey VSIG4-L-His; test: ELISA, IgG 50 nM on coated antigen; ELISA, bivalent IgG on plate-coated cyVSIG4-L (avid format)
Human VSIG4-L-Fc [11] = biological target: T1, Human VSIG4-L-Fc; test: BLI binning on hVSIG4-L-Fc, competitor 14C05 first;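 also: normalized to binding of second antibody without first competitor antibody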
Human VSIG4-L-Fc [12] = biological target: T1, Human VSIG4-L-Fc; test: BLI binning on hVSIG4-L-Fc, competitor 12A12 first;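 also: normalized to binding of second antibody without first competitor antibody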
[13] = biological target: T2, Human VSIG4-L-CHO (human VSIG4 long …); test: flow cytometry (FJB), 200 nM mAb, huVSIG4-L CHO-K1 over parental CHO-K1
Human VSIG4-S-His [14] = biological target: T5, Human VSIG4-S-His (human, UniProt Q9Y279 20-283); test: BLI (Octet), IgG on AHC sensor
T5 construct: short isoform ECD with His tag; also called hVSIG4-S; VISG4-S-His
T5 sequence: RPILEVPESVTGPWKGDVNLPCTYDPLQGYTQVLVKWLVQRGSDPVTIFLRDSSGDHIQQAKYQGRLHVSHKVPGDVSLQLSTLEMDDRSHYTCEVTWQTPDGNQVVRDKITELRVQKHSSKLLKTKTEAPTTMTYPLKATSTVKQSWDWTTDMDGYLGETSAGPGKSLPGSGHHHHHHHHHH

Human VSIG4-L-Fc [15] = biological target: T1, Human VSIG4-L-Fc; test: ligand competition ELISA (FJB), blocked ligand C3b, 200 nM mAb
Human VSIG4-L-His [16] = biological target: T3, Human VSIG4-L-His; test: BLI (Octet), IgG on AHC sensor, antigen 100 nM
Human VSIG4-L-Fc [17] = biological target: T1, Human VSIG4-L-Fc; test: ligand competition ELISA (FJB), blocked ligand iC3b, 200 nM mAb
Human VSIG4-L-Fc [18] = biological target: T1, Human VSIG4-L-Fc; test: BLI binning on hVSIG4-L-Fc, competitor 16E03 first;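 also: normalized to binding of second antibody without first competitor antibody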
Human VSIG4-L-Fc [19] = biological target: T1, Human VSIG4-L-Fc; test: BLI binning on hVSIG4-L-Fc, competitor 14D12 first;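 also: normalized to binding of second antibody without first competitor antibody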
Human VSIG4-L-Fc [20] = biological target: T1, Human VSIG4-L-Fc; test: BLI binning on hVSIG4-L-Fc, competitor 13H11 first;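 also: normalized to binding of second antibody without first competitor antibody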
Human VSIG4-S-Fc = biological target: T6, Human VSIG4-S-Fc (human); test: ELISA, IgG 50 nM on coated antigen;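 also: Mouse-human chimeric IgG4 antibodies incubated 1 h on plate-coated VSIG4 proteins, bound IgG detected with HRP-labelled anti-human IgG, irrelevant antibody and protein as specificity controls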
T6 construct: short isoform ECD fused to human Fc1; also called hVSIG4-S

Mouse VSIG4-His = biological target: T7, Mouse VSIG4-His (mouse); test: ELISA, IgG 50 nM on coated antigen;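 also: Mouse-human chimeric IgG4 antibodies incubated 1 h on plate-coated VSIG4 proteins, bound IgG detected with HRP-labelled anti-human IgG, irrelevant antibody and protein as specificity controls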
T7 construct: ECD with His tag; also called mVSIG4
T7 chain: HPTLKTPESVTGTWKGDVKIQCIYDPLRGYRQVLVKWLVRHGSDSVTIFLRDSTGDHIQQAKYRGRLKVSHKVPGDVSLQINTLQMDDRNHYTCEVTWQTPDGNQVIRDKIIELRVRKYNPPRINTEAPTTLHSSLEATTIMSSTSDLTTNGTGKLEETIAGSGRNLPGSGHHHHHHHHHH

Human VSIG4-L-Fc [21] = biological target: T1, Human VSIG4-L-Fc; test: ELISA, IgG 50 nM on coated antigen;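 also: Mouse-human chimeric IgG4 antibodies incubated 1 h on plate-coated VSIG4 proteins, bound IgG detected with HRP-labelled anti-human IgG, irrelevant antibody and protein as specificity controls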
Human VSIG4-L-Fc [22] = biological target: T1, Human VSIG4-L-Fc; test: ligand blocking of iC3b, IgG
Human VSIG4-L-Fc [23] = biological target: T1, Human VSIG4-L-Fc; test: ligand competition ELISA (FJB), blocked ligand iC3b
Human VSIG4-L-Fc [24] = biological target: T1, Human VSIG4-L-Fc; test: ligand competition ELISA (FJB), blocked ligand C3b
Human VSIG4-L-Fc [25] = biological target: T1, Human VSIG4-L-Fc; test: ligand blocking of C3b, IgG
Human VSIG4-L-His [26] = biological target: T3, Human VSIG4-L-His; test: BLI, IgG on AHC sensor, antigen 100 nM
[27] = biological target: T4, Cynomolgus Monkey VSIG4-L-His; test: BLI, IgG on AHC sensor, antigen 100 nM
[28] = biological target: T4, Cynomolgus Monkey VSIG4-L-His; test: BLI (Octet), IgG on AHC sensor, antigen 100 nM
[29] = biological target: T4, Cynomolgus Monkey VSIG4-L-His; test: ELISA, IgG 50 nM on coated antigen;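 also: Mouse-human chimeric IgG4 antibodies incubated 1 h on plate-coated VSIG4 proteins, bound IgG detected with HRP-labelled anti-human IgG, irrelevant antibody and protein as specificity controls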
Human VSIG4-L-Fc [30] = biological target: T1, Human VSIG4-L-Fc; test: BLI cross-blocking on hVSIG4-L-Fc, competitor 12A12 first
Human VSIG4-L-Fc [31] = biological target: T1, Human VSIG4-L-Fc; test: BLI cross-blocking on hVSIG4-L-Fc, competitor 16G02 first
Human VSIG4-L-Fc [32] = biological target: T1, Human VSIG4-L-Fc; test: BLI cross-blocking on hVSIG4-L-Fc, competitor 14C05 first
Human VSIG4-S-His [33] = biological target: T5, Human VSIG4-S-His; test: BLI (Octet), IgG on AHC sensor, antigen 100 nM

T6 sequence (chain, as listed by the source limits assumed): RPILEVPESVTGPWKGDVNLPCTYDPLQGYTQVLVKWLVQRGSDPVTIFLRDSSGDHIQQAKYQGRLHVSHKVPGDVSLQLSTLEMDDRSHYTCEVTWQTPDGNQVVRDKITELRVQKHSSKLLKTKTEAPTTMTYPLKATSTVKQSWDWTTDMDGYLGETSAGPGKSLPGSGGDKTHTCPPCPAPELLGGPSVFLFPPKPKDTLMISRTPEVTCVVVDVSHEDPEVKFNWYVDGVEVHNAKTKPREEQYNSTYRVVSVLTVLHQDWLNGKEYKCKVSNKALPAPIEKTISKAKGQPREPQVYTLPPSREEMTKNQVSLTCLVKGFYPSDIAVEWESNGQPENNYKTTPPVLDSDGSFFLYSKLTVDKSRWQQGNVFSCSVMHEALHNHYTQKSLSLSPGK

| Binder | normalized maximum binding nm shift (Human VSIG4-L-Fc [1]) | normalized maximum binding nm shift (Human VSIG4-L-Fc [2]) | normalized maximum binding nm shift (Human VSIG4-L-Fc [3]) | normalized maximum binding nm shift (Human VSIG4-L-Fc [4]) | normalized maximum binding nm shift (Human VSIG4-L-Fc [5]) | EC50 [6] | Kd (Human VSIG4-L-His [7]) | Kd [8] | Binding (200 nM) MFI [9] | normalized maximum binding nm shift (Human VSIG4-L-Fc [11]) | normalized maximum binding nm shift (Human VSIG4-L-Fc [12]) | Binding (200 nM) Fold-Over-Parental [13] | binding result (Human VSIG4-S-His [14]) | Kd (Human VSIG4-L-His [16]) | normalized maximum binding nm shift (Human VSIG4-L-Fc [18]) | normalized maximum binding nm shift (Human VSIG4-L-Fc [19]) | normalized maximum binding nm shift (Human VSIG4-L-Fc [20]) | ELISA OD450 (Human VSIG4-S-Fc) | ELISA OD450 (Mouse VSIG4-His) | ELISA OD450 (Human VSIG4-L-Fc [21]) | also measured |
| --- | --- | --- | --- | --- | --- | --- | --- | --- | --- | --- | --- | --- | --- | --- | --- | --- | --- | --- | --- | --- | --- |
| B1 | 0.12 normalized | 0.15 normalized | 0.79 normalized | 0.88 normalized | 0.95 normalized | 2.4 nM | 15 nM | 14.3 nM | 23900 MFI | 0.8 normalized | 0.91 normalized | 63 fold | no binding (tested: 100 nM) | 28.5 nM | 0.73 normalized | 0.79 normalized | 0.53 normalized | 0.24 OD450 | 0.067 OD450 | 4.38 OD450 | ELISA OD450 [10]: 4.35 OD450; % Block C3b (200 nM mAb) (Human VSIG4-L-Fc [15]): -24%; % Block iC3b (200 nM mAb) (Human VSIG4-L-Fc [17]): 2% |
| B2 | 0.51 normalized | 0.68 normalized | 0.86 normalized | 0.7 normalized | 0.95 normalized | 1.2 nM |  | 20.1 nM | 54300 MFI | 0.74 normalized | 0.74 normalized | 140 fold | no binding (tested: 100 nM) | 50.6 nM | 0.72 normalized | 0.69 normalized | 0.09 normalized | 0.44 OD450 | 0.048 OD450 | 4.27 OD450 | Percent Blocking iC3b (Human VSIG4-L-Fc [22]): 78%; IC50 (Human VSIG4-L-Fc [23]): 440 nM; IC50 (Human VSIG4-L-Fc [24]): ~7 nM; Percent Blocking C3b (Human VSIG4-L-Fc [25]): 75%; KD relative to parental chimera (Human VSIG4-L-His [26]): 1 fold; KD relative to parental chimera [27]: 1 fold; Kd [28]: 20.3 nM; ELISA OD450 [29]: 4.37 OD450 |
| B3 | 0.68 normalized | 0.76 normalized | 0.38 normalized | 0.75 normalized | 0.87 normalized | 4.4 nM | 1.7 nM | 5.4 nM | 109000 MFI | 0.11 normalized | 0.83 normalized | 304 fold |  | 3.46 nM | 0.62 normalized | 0.07 normalized | 0.66 normalized | 4.36 OD450 | 0.055 OD450 | 4.51 OD450 | binding signal (nm shift) (Human VSIG4-L-Fc [30]): 0.83 nm; binding signal (nm shift) (Human VSIG4-L-Fc [31]): 0.16 nm; binding signal (nm shift) (Human VSIG4-L-Fc [32]): 0.11 nm; IC50 (Human VSIG4-L-Fc [24]): 2.4 nM; Percent Blocking C3b (Human VSIG4-L-Fc [25]): 96%; KD relative to parental chimera (Human VSIG4-L-His [26]): 1 fold; KD relative to parental chimera [27]: 1 fold; Kd (Human VSIG4-S-His [33]): 2.69 nM; Kd [28]: 30 nM; ELISA OD450 [29]: 4.52 OD450 |
